Source: IntAct's records for PubMed 26388029

Experiments:
ubp1_human USP1 = ubp1_human USP1 (UniProt O94782)
Chain of ubp1_human USP1 (O94782 whole entry): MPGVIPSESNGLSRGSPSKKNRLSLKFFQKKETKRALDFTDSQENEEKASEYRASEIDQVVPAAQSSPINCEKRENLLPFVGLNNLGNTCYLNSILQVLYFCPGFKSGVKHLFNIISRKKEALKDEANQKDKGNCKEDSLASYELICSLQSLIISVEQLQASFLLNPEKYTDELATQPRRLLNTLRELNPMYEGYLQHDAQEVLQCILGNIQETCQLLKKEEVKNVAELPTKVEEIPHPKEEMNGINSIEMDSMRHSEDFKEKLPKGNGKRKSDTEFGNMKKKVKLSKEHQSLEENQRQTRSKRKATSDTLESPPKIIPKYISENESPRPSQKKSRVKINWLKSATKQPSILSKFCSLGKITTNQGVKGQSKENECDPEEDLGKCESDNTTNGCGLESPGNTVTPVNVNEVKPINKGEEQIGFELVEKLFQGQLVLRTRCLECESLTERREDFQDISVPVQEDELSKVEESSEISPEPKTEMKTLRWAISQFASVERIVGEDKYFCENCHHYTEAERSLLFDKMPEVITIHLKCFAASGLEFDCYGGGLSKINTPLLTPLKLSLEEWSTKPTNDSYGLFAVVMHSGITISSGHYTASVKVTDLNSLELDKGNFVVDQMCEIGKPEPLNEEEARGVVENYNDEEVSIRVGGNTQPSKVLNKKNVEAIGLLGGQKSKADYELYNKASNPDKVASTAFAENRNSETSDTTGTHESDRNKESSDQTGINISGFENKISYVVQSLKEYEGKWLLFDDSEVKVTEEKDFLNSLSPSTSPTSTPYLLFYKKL

## WD repeat-containing protein 48 (Homo sapiens), Q8TAF3-1 K214E;W256A;R272D
ubp1_human USP1
  effect of a mutation on the interaction: disrupting interaction strength
USP46, P62068-1
Chain of USP46, P62068-1 (P62068 whole entry): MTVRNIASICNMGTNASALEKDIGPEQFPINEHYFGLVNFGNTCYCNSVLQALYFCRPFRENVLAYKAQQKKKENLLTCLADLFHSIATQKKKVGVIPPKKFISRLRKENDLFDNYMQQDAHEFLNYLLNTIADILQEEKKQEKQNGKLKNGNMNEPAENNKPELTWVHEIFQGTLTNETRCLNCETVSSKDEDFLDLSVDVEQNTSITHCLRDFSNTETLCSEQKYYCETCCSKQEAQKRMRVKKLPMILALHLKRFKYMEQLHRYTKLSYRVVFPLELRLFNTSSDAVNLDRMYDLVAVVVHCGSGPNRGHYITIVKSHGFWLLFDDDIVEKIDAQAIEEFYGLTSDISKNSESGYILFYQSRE
  effect of a mutation on the interaction: disrupting interaction strength

## WD repeat-containing protein 48 (Homo sapiens), Q8TAF3-1 S170Y
USP46, P62068-1
  effect of a mutation on the interaction: decreasing interaction strength
